Data set [1] deals with T1, SARS-CoV-2 spike receptor binding domain (RBD) (SARS-CoV-2, UniProt P0DTC2 319-541). The experiment in a line: ELONA. Conditions: protein: commercial; label: 5'-biotin.
In data set [2] the target is T1, SARS-CoV-2 spike receptor binding …. Description: fluorescent strand displacement from beads. Conditions: protein: commercial.

B1: RBD-1 aptamer (ssDNA)
DNA: CAGCACCGACCTTGTGCTTTGGGAGTGCTGGTCCAAGGGCGTTAATGGACA
B1 returned a dissociation constant Kd in data set [1] of 4.58 ± 1.15 nM.

B2: RBD-1/MM-T2 antisense duplex (mixed)
DNA 1: CAGCACCGACCTTGTGCTTTGGGAGTGCTGGTCCAAGGGCGTTAATGGACA
DNA 2: GACGGTGCTG
For the molecule B2, in data set [2], the binding result is reported as “binds”.

B3: RBD-1/CM antisense duplex (mixed)
DNA 1: CAGCACCGACCTTGTGCTTTGGGAGTGCTGGTCCAAGGGCGTTAATGGACA
DNA 2: GTCGGTGCTG
B3: the binding result in data set [2] is listed as “binds”.

B4: RBD-1/MM-T9 antisense duplex (mixed)
DNA 1: CAGCACCGACCTTGTGCTTTGGGAGTGCTGGTCCAAGGGCGTTAATGGACA
DNA 2: GTCGGTGCAG
Regarding B4, the binding result in data set [2] was “binds”.

Broadly, the Kd is the constant that tells how readily two partners part at equilibrium.

These data come from publication PMC12365907, “https://orcid.org/0000-0002-7156-8846 Tungsirisurp Sireethorn Conceptualization Methodology Formal analysis Investigation Data curation Writing – original draft Writing – review & editing”.
